Reference: article PMC8420576

Target: SARS-CoV-2 Spike RBD (residues 334–527), C-terminal Avi-His6 tag, biotinylated (SARS-CoV-2) (UniProt P0DTC2)
Test: BLI

## VHH72
  Kd: 27 nM
  koff: 0.0036 s⁻¹
